We go through seven substances from patent publication US20250051414A1.

One assay addresses IL-2Rβ/γ Fc heterodimer (UniProt P14784). The experiment in a line: BLI (Octet RED384), biotinylated monomeric IL-2/Fc on streptavidin sensors, 1:1 kinetic fit. Background: Biolayer interferometry detects binding as a change in optical thickness at a sensor tip.
The target in assay [1] is IL2-Ra ectodomain with C-terminal 6xHis tag (UniProt P01589). Kind of assay: BLI (Octet RED384), biotinylated monomeric IL-2/Fc on streptavidin sensors, equilibrium binding.
Chain of UniProt P01589 (P01589 other isoform, or with tags, fused parts or gaps limits assumed): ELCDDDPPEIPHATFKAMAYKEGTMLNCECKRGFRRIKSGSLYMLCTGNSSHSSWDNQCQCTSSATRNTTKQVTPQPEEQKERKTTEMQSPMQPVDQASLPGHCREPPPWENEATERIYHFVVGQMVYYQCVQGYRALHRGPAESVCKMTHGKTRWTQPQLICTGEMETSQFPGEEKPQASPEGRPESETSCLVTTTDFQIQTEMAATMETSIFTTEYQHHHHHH

Chain of UniProt P14784 (P14784 other isoform, or with tags, fused parts or gaps, chain 1 of 2): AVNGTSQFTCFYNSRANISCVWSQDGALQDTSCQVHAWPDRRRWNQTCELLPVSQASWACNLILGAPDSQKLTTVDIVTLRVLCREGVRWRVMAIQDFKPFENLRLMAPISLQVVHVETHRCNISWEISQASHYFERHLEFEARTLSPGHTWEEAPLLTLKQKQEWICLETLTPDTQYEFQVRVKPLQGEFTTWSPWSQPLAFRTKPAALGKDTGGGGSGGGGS
Chain of UniProt P14784 (P31785 other isoform, or with tags, fused parts or gaps, chain 2 of 2, further chain): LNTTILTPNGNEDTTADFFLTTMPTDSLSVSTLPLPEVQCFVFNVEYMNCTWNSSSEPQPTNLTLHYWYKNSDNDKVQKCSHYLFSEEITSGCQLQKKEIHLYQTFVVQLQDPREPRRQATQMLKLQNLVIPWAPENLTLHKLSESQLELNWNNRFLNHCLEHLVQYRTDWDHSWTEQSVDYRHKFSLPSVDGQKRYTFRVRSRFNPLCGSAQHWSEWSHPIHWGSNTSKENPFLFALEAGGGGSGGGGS

Usually Kd stands for the constant that tells how readily two partners part at equilibrium. As for N88D C-term (Fc fusion), the figures for the equilibrium dissociation constant (Kd) (in the assay with IL-2Rβ/γ Fc heterodimer; in assay [1]) were 24 nM and 1.01 nM, respectively.

As to R38Q N-term (Fc fusion), the Kd in the assay with IL-2Rβ/γ Fc heterodimer turned out to be 3.99 nM; in assay [1], 0.71 nM.

As to WT N-term (Fc fusion), the Kd in the assay with IL-2Rβ/γ Fc heterodimer turned out to be 5.3 nM; in assay [1] it was 0.19 nM.

Regarding V91K C-term (Fc fusion), the dissociation constant Kd is 7.56 nM with IL-2Rβ/γ Fc heterodimer and 0.69 nM in assay [1].

Consider F42Q N-Term (Fc fusion), for which the Kd came out at 2.81 nM with IL-2Rβ/γ Fc heterodimer and 9.48 nM in assay [1].

For the substance WT C-term (Fc fusion), the values for the equilibrium dissociation constant (Kd) (in the assay with IL-2Rβ/γ Fc heterodimer; in assay [1]) were 3.04 nM and 0.54 nM, respectively.

In the case of H16N N-term (Fc fusion), the Kd with IL-2Rβ/γ Fc heterodimer is 22.4 nM; in assay [1], 0.43 nM.
